From paper PMC5651886

Target: pre-fusion RSV F DS-Cav1 (human respiratory syncytial virus (hRSV A strain))
Experiment: SEC; UPLC on a BEH200 size exclusion chromatography column (Waters Acquity UPLC); final purified protein after thrombin cleavage, 10 mM potassium phosphate pH 7.2

Substance: pre-fusion RSV F DS-Cav1 (natural protein)
- stoichiometry N: 3
